This note sets out measurements from the RNAGym collection of RNA variant scans (doi:10.1073/pnas.2313332121).

B1: TPR 5TU (parent)
chain: GGAUCUUCUCGAUCUAACAAAAAAGACAAAUCUGCCACAAAGCUUGAGAGCAUCUUCGGAUGCAGAGGCGGCAGCCUUCGGUGGCGCGAUAGCGCCAACGUUCUCAACUAUGACACGCAAAACGCGUGCUCCGUUGAAUGGAGUUUAUCAUG

Variants at the floor of the assay were thinned out.

In the data set the parent is B1. Kind of data set: polymerase ribozyme fitness, log enrichment relative to wild type (log ratio); higher = more active; in vitro selection for triplet polymerase activity. A digest of the protocol:
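Libraries of mutants in each subunit of a heterodimeric triplet polymerase ribozyme were generated by PCR and transcribed. In triplicate, each went through one in vitro selection round: annealing with biotinylated primer, partner subunit and triplets; frozen incubation at −7 °C; gel excision of extended constructs; streptavidin-bead capture; RT-PCR. Fitness, taken from Illumina sequencing of input and output libraries, is the logarithm of a genotype's enrichment over wild-type enrichment, averaged across replicates with inverse-variance weights. The logarithm is base 2, and genotypes needed ≥10 input reads and ≥1 read per output to be kept.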
On to GGAUCUUCUCGAUCUAACAAAAAGGACAAAUCUGCCACAAAGCUUGAGAGCAUCUUCGGAUGCAGAGGCGGCAGCCUUCGGUCGCGCGAUAGCGCCAACGUUCUCAACUAUGACACGCAAAACGCGUGCUCCGUUGAAUGGAGUUUAUCAUG, for which the “polymerase ribozyme fitness (log ratio)” value is -3.62.

Consider GGAUCUUCUCGAUCUAACAAAAAAGACAAAUCUGCCACAAAGCUUGAGAGUAUCUUCGGUUGCAGAGGCGGCAGCCUUCGGUGGCGCGAUAGCGCCAACGUUCUCAACUAUGACACGCAAAACGCGUGCUCCGUUGAAUGGAGUUUAUCAUG, for which the “polymerase ribozyme fitness (log ratio)” value was -0.791.

GGAUCUUCUCGAUCUAACAAAAAAGACAAAUCUCCCACAAAGCUUGAGAGCAUCUACGGAUGCAGAGGCGGCAGCCUUCGGUGGCGCGAUAGCGCCAACGUUCUCAACUAUGACACGCAAAACGCGUACUCCGUCGAAUUGAGUUUAUCAUG: the “polymerase ribozyme fitness (log ratio)” value is not above -4.2.

Turning to GGAUCUUCUCGAUAUAACUAAAAAGACAAAUCGGCCACAAAGCUUGAGAGCAUCUUCGGAUGCAGAGGAGGCAGGCUUCGGUGGCGCGAUAGCGCAGACGUUCUCCACUAUGACACGCAAAACGCGUGCUCCGUUGAAUCGAGUUUAUCAUG, the “polymerase ribozyme fitness (log ratio)” value was not above -4.2.

As to GGAUCUUCUCGAUCUAACUAAAACGACAAAUCUGCCACAAAGCUUGAGAGCAUCUUCGGAUGCAGAGGCGGCAGCCUUCGGUGGCACGAUAGCGCCAACGUUCUCAACUAUGACACGCAAAACGCGUGCUCCGUUGAAUUGAGUUUAUCAUG, the “polymerase ribozyme fitness (log ratio)” value is not above -4.2.

As for GGAUCUUCUCGAUCUAACAAAAAAGACAAAUCUGCCACAAAGCUUGAGAGCCUCUUCGGAUGCAGAGGCGGCAGCCUUCGGUGGCGCGAUAGCGCCAACGUGCUCAACUAUGACACGCAAAACGCGUGCUCCGUUGAAUGGAGUUUUUCAUG, the “polymerase ribozyme fitness (log ratio)” value was -3.59.

GGAUCUUCUCGAUCUAACAAAAAAGACAAAUCUGCCACAAAGCUUGAGAGCAUCUUCGGAUGCGGAGGCGGCAGCCUUCGGUGGCUCGAUAGCGCCAACGUUCUCAACUAUGACACGCAAAACGCGUGCCCCGUUGAAUGGAGUUUAUCAUG: the “polymerase ribozyme fitness (log ratio)” value is not above -4.2.

In the case of GGAUCUUCUCGAUGUAACAAAAAAGACAAAUCUGCCACAAAGCUUGAGAGCAUCUUCGGAUGCAGAGGCGGCAGCCUUCUGUGUCGCGAUAGCGCCAACGUUCUCAACUAUGACACGCAAAACGCGUGCUCAGUUGAAUGGAGUUUAUCAUG, the “polymerase ribozyme fitness (log ratio)” value is not above -4.2.

With GGAUCUUGUCGAUCUAACAAAAAAGACAAAUCUGCCACAACGCUUGAGAGCAUCUUCGGAUGCAGAGGCGGCAGCCUUCGGUGGCGCGAUAGGGCCAACGUUAUCAACUAUGACACGCAUAACGCGUGCUCCGUUGAAUGGUGUUUAUCAUG, the “polymerase ribozyme fitness (log ratio)” value was not above -4.2.

For the variant GGAUCUUCUCGAUCUAACAAAAAAGACAAAUGUGCCACAAAGCUUGAGAGCAACUUCGGAUGCAGAGGCGGCAGCCUUCGGUGGCCCGAUCGCGCCAACGUUCUCAACUAUGACACGCAUUACGCGUGCUCCGUUGAAUGGAGUUUAUCAUG, the “polymerase ribozyme fitness (log ratio)” value was not above -4.2.

Regarding GGAUCUUCUCGAUCUAACAAAAAAGUCAAAUCUGCCACAAAGCAUGAGAGCAUCUUCGGAUGCAGAGGCGGCAGCCUUCGGUGGCGCGAUAGCGCCUACGUUCUCAACUAUGACACGCAAAACGCGUGCUCCGUUGAAUGGAGUUUAUCAUG, the “polymerase ribozyme fitness (log ratio)” value is not above -4.2.

As for GGAUCUUCUCGAUCUAACAAAAAAGACAAAUCUGCCACAAAGCUUAAGAGCAUCUUUCGAUGCAGAGGCGGCAGCAUUCGGUGGCGCGAUAGCGCAAACGCUCUCUACUAUGACACGCAAAACGCGUGCUCCGUUGAAUGGAGUUUAUCAUG, the “polymerase ribozyme fitness (log ratio)” value is not above -4.2.

In the case of GGAUAUUCUCGAUCUAACAAAAAAGACAAAUCUGCCACAAAGCUUGAGAGCAUCUUCGGAUGCAGAGGCGGCAGCUUUCGGUGGCGCGAUAGAGCCAACGUUCUCAACUAUGACACGCAAAACGCGUGCUCCGUUGAAUGGAGUUUAUCAUG, the “polymerase ribozyme fitness (log ratio)” value is -1.5.

As to GGAUCUUCUCGAUCUAACAAAAAAGACAAAUCUGCCACAAAGCUUGAGAGCAUCUUCGGAUGCAGAGGCGGCAGCCUUCGGUGGCGCGAUAGCGCCAACGUUCUCAACUAUGACACGCAAAACGCGAGCUCCGUUGAAGGGAGUUUAUCAUU, the “polymerase ribozyme fitness (log ratio)” value is not above -4.2.

Regarding GGAUCUUCUCGAUCUAACAACAAAGACAAAUCUGCCACACAGCUAGAGAGCAUCUUCGGAUGCAGAGGCGGCGGCCUUCGGUUGCGCGAUAGCGCAAACGUUCUCAACUAUGACACGCAAAACGCGUGCUCCGUUGAAUGGAGUUUAUCAUG, the “polymerase ribozyme fitness (log ratio)” value is not above -4.2.

For GGAUCUUCUCGAUCUAACAAAAAAGACACCUCUGCCACAAAGCUUGAGAGCAUCUUCGGAUCCAGAGGCGGCAGCCUUCGGUGGCGCGAUAGCGCCAACGUUCUCAACUAUGACACGCAAAACGGGUGCUCCGUUGGAUGGUGUUUAUCAUG, the “polymerase ribozyme fitness (log ratio)” value was -4.11.

As for GGAUCUUCUCGAUCUAACAAAAAAGACAAAUCUGCCACAAAGCUUGAGAGCAUCUUUGGAUGCAGAGGCGGCGACCUUCGGUGGCGCGAUAGCGCCAACGUUCUCAACUAUGAGACGCAAAACGCGUGCUCCGUAGAAUGGAGUUUAUCAGG, the “polymerase ribozyme fitness (log ratio)” value was not above -4.2.

In the case of GGAUCUUCUCGAUUUAACAAAAAAGACAAAUCUGCCACAAAGCUUGAGAGCAUCUUCGGAUGCAGAGGCGGCAGGCUUCGGUGGCGCGAUAGCGCCAACGGUCUCAACUAUGACACGCAAAACGCGUGCUCCGUAGAAUGGAGUUUAUCAUG, the “polymerase ribozyme fitness (log ratio)” value was not above -4.2.

In the case of GGAUCUUCUCGAUCUAACAAAAAAGACAAAGCUGCCACAAAGCUUGAGAGCAUCUUCGGAUGCAGAGGCGGCAGCCUUCGGUGGCGCGAUAGCGCCAAGGUGCUCAAAUAUGACACGCAAAACGUGGGCUCCGUUGAAUGGAGUGUAUCAUG, the “polymerase ribozyme fitness (log ratio)” value is not above -4.2.
